According to patent CN108003238A (VELOX PHARMACEUTICALS INC, dated 2018):

Tests used:
[1] = target: 小鼠CTLA4/CD152蛋白(His标签) (mouse) (UniProt P09793); assay: ELISA, mouse CTLA-4 coated, anti-human Fc HRP detection
[2] = target: T1, Human CTLA-4/CD152 Protein (His Tag), Biotinylated (human, UniProt P16410 36-161, biotinylated (site not stated)); assay: multi-cycle kinetics on OCTET, antibody captured on Protein A, CTLA-4 diluted 2-fold from 33 nM over 7 points
T1 construct: Bought recombinant protein; also called 人CTLA-4蛋白; 抗原; not shown: His tag
T1 sequence (looked up): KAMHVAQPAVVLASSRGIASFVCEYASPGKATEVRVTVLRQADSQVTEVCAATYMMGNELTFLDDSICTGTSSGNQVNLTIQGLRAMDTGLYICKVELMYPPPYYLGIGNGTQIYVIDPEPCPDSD

Chain of UniProt P09793 (P09793 36-161 limits assumed): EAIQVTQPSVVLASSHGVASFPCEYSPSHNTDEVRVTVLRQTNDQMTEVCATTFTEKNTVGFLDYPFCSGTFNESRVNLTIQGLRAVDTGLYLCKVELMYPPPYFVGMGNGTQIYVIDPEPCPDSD

B1: IgG1-6E2-CTLA-4 (antibody, V domains shown)
VH: QVQLVQSGAEVKKPGSSVKVSCKASGGTFSSYGISWVRQAPGQGLEWMGGIIPIFETSESAQKFQGRVTFTADKSSSTGYMELSSLRSEDTAIYYCARDPLHRSSSGTYYHYFMDVWGQGTMVTVSS
VL: QAVLTQPSSLSASPGASVSLTCTLRSGINVGAYRIYWYQQKPGSPPQFLLRYKSDSDKEQGRGVPSRFSGSKDASANAGILLISGLQSEDEADYYCMIWHNNAVFFGGGTKLTVLG
notes: also called 抗CTLA-4全人源单克隆抗体
- antibody concentration at which binding is still not saturated [1]: > 8 ng/µL
- Kd [2]: 1 pM
